{"source": "patent US20220273789A1", "data": [{"molecular_target": "Human IgG isotype control (ThermoFischer Scientific, ref 12000C) (human)", "experiment": "BLI, gEgI on Ni-NTA tips, hIgG in solution", "units": {"Kd": "nM", "Relative Affinity (%) compared to control construct HSV34": "%", "koff": "s⁻¹", "kon": "M⁻¹ s⁻¹"}, "values": [{"substance": "HSV40 (HSV2- gE_289_insert ADIGL_gI) (from UniProt P89475 21-416; P06764 21-256) (receptor)", "Kd": 628, "Relative Affinity (%) compared to control construct HSV34": 18, "koff": 0.00519, "kon": 8240}, {"substance": "HSV47 (HSV2- gE_P319R_gI) (from UniProt P89475 21-416; P06764 21-256) (receptor)", "Kd": 2550, "Relative Affinity (%) compared to control construct HSV34": 5, "koff": 0.00355, "kon": 1490}, {"substance": "HSV52 (HSV2- gE_H245A-P319R_gI) (from UniProt P89475 21-416; P06764 21-256) (receptor)", "Kd": 2530, "Relative Affinity (%) compared to control construct HSV34": 5, "koff": 0.00304, "kon": 1310}, {"substance": "HSV59 (HSV2- gE_S338D_gI) (from UniProt P89475 21-416; P06764 21-256) (receptor)", "Kd": 890, "Relative Affinity (%) compared to control construct HSV34": 13, "koff": 0.00128, "kon": 1550}, {"substance": "HSV54 (HSV2- gE_H245A-P319K_gI) (from UniProt P89475 21-416; P06764 21-256) (receptor)", "Kd": 883, "Relative Affinity (%) compared to control construct HSV34": 13, "koff": 0.00284, "kon": 3370}, {"substance": "HSV41 (HSV2-gE_338_insert ARAA_gI) (from UniProt P89475 21-416; P06764 21-256) (receptor)", "Kd": 1600, "Relative Affinity (%) compared to control construct HSV34": 7, "koff": 0.00309, "kon": 2010}, {"substance": "HSV61 (HSV2- gE_R320D_gI) (from UniProt P89475 21-416; P06764 21-256) (receptor)", "Kd": 2400, "Relative Affinity (%) compared to control construct HSV34": 5, "koff": 0.0012, "kon": 514}, {"substance": "HSV58 (HSV2- gE_P319S_gI) (from UniProt P89475 21-416; P06764 21-256) (receptor)", "Kd": 116, "Relative Affinity (%) compared to control construct HSV34": 100, "koff": 0.000604, "kon": 5290}, {"substance": "HSV60 (HSV2- gE_N241A_gI) (from UniProt P89475 21-416; P06764 21-256) (receptor)", "Kd": 81.9, "Relative Affinity (%) compared to control construct HSV34": 142, "koff": 0.000727, "kon": 8990}, {"substance": "HSV50 (HSV2- gE_P319T_gI) (from UniProt P89475 21-416; P06764 21-256) (receptor)", "Kd": 8.91, "Relative Affinity (%) compared to control construct HSV34": 1300, "koff": "8.38e-05", "kon": 9460}, {"substance": "HSV46 (HSV2- gE_P319A_gI) (from UniProt P89475 21-416; P06764 21-256) (receptor)", "Kd": 73.5, "Relative Affinity (%) compared to control construct HSV34": 158, "koff": 0.000482, "kon": 6630}]}, {"molecular_target": "human IgG (human)", "experiment": "BLI (Octet), gEgI on Ni-NTA sensor, hIgG in solution", "units": {"Kd": "nM", "Response": "nm", "koff": "s⁻¹", "kon": "M⁻¹ s⁻¹"}, "values": [{"substance": "HSV2-gE_P317S S338H_gI (from UniProt P89475 21-416; P06764 21-256) (receptor)", "Kd": 154, "Response": 0.516, "koff": 0.0021, "kon": 13600}, {"substance": "HSV2-gE_H245S P319L_gI (from UniProt P89475 21-416; P06764 21-256) (receptor)", "Kd": 292, "Response": 0.323, "koff": 0.0019, "kon": 6520}, {"substance": "HSV2-gE_P318D S338H_gI (from UniProt P89475 21-416; P06764 21-256) (receptor)", "Kd": 280, "Response": 0.18, "koff": 0.00215, "kon": 7690}, {"substance": "HSV2-gE_P317F S338L_gI (from UniProt P89475 21-416; P06764 21-256) (receptor)", "Kd": 225, "Response": 0.442, "koff": 0.00165, "kon": 7370}, {"substance": "HSV2-gE_R314P F322P_gI (from UniProt P89475 21-416; P06764 21-256) (receptor)", "Kd": 283, "Response": 0.561, "koff": 0.00356, "kon": 12600}, {"substance": "HSV2-gE_R314L V340R_gI (from UniProt P89475 21-416; P06764 21-256) (receptor)", "Kd": 615, "Response": 0.284, "koff": 0.00307, "kon": 4990}, {"substance": "HSV2-gE_R314P V340M_gI (from UniProt P89475 21-416; P06764 21-256) (receptor)", "Kd": 402, "Response": 0.525, "koff": 0.0046, "kon": 11400}, {"substance": "HSV2-gE_R314P P318D_gI (from UniProt P89475 21-416; P06764 21-256) (receptor)", "Kd": 222, "Response": 0.306, "koff": 0.00145, "kon": 6520}, {"substance": "HSV2-gE_R314P V340R_gI (from UniProt P89475 21-416; P06764 21-256) (receptor)", "Kd": 459, "Response": 0.351, "koff": 0.00241, "kon": 5260}, {"substance": "HSV2-gE_P318D S338L_gI (from UniProt P89475 21-416; P06764 21-256) (receptor)", "Kd": 163, "Response": 0.303, "koff": 0.00107, "kon": 6560}, {"substance": "HSV2-gE_R314L V340W_gI (from UniProt P89475 21-416; P06764 21-256) (receptor)", "Kd": 914, "Response": 0.148, "koff": 0.00524, "kon": 5740}]}]}
